Laboratory results: patent US8492329B2, “Bioactive peptides and methods of using same” (Compugen Ltd., priority 2007, dated 2013)

What was measured:
Type in all cases: cell-based
GPR135 (RXFP3) = molecular target: T1, GPR135 (RXFP3) (Homo sapiens, UniProt Q9NSD7); test: cAMP HTRF assay on Euroscreen RXFP3 recombinant cells; details: increasing concentrations, 30 min; FIG. 5
T1 construct: host or cells: CHO-K1 recombinant cell line (Euroscreen)
T1 sequence (Q9NSD7 1-469): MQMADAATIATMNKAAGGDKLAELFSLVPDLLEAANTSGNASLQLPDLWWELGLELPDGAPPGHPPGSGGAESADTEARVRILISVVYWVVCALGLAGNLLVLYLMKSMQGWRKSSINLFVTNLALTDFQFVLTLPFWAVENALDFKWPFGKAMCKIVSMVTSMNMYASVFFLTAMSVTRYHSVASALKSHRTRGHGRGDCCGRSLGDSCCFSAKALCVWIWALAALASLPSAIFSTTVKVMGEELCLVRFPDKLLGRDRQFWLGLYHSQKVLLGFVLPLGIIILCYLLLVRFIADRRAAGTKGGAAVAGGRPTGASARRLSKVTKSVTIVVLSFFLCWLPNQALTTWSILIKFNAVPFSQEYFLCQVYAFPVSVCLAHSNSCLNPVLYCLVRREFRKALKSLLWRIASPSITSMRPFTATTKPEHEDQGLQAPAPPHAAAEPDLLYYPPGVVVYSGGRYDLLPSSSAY
Method: The ability of P59C13V (SEQ ID NO: 6) and H3 Relaxin to activate CHO-K1 cells transfected by GPR135 (RXFP3), which is a non-LGR, Relaxin related receptor, was tested. The assay was performed by Euroscreen. For cAMP concentration analysis, Euroscreen cat. ES-656-A-cells (RXFP3, Euroscreen cat. ES-656-A) grown to mid-log phase in culture media without antibiotics were detached with PBS-EDTA, centrifuged and resuspended in assay buffer at a concentration of […]. The test was performed in 96 well plates. For agonist testing, 12 μl of cells (5×10^3 cells/well) were mixed with 12 μl of agonist Either H3-Relaxin or P59C13V (P59) (SEQ ID NO: 6) at increasing concentrations. The plates were then incubated for 30 min at room temperature. After addition of the lysis buffer, cAMP concentrations were estimated, according to the manufacturer specification, with the HTRF kit from Cis-Bio International (cat no 62AM2PEB).
.Relaxin 3 Fit (Eeuroscreen) was used as a positive control. RXFP3 (GPCR135) transfected cells were challenged with increasing concentrations of Relaxin 3 (H3 Relaxin—as a positive control—[…]) or P59C13V (P59) (SEQ ID NO: 6) (1 nM-3 uM).

LGR8 (RXFP2) [1] = molecular target: T2, LGR8 (RXFP2) (Homo sapiens, UniProt Q8WXD0); test: pCRE-β-gal reporter assay in Forskolin-treated CHO-K1 cells transiently transfected with LGR8; set-up: expressed in transfected cells; host or cells: CHO-K1 (transient); details: 5 uM Forskolin, FIG. 8A-B
Method: The ability of P74C13V (P74) (SEQ ID NO: 10) and P59C13V (P59) and P59C13V-Amide (P59-Amide) (SEQ ID NO: 6 and 5 respectively) to activate LGR7 (RXFP1) and LGR8 (RXFP2) was further tested by testing the ability of these peptides to influence cAMP activity induced by 5 μM Forskolin in CHO-K1 cells transiently transfected with LGR7/pCRE-β-gal or LGR8/pCRE-β-gal as compared to H2 relaxin and INSL3 respectively.
LGR8 transfected CHO-K1 cells were treated with 5 uM of Forskolin to stimulate cAMP. The cells were then challenged with increasing doses of INSL3 (as positive control), P74C13V (P74) (SEQ ID NO: 10), P59C13V with (P59-Amide) and without (P59) amide (SEQ ID NO: 5 and 6, respectively) and P59S-Amide (P59-S) (SEQ ID NO: 1). […] The results are presented as a percentage of Forskolin activity at various concentrations of the peptide (logarithmic scale). Each point represents three unrelated repeats for each experiment.

LGR8 (RXFP2) [2] = molecular target: T2, LGR8 (RXFP2); test: cAMP accumulation (Hit Hunter cAMP kit) in CHO-K1 cells transiently transfected with LGR8; set-up: expressed in transfected cells; host or cells: CHO-K1 (transient); details: 20 uM Forskolin, FIG. 2
Method: The ability of Peptides to affect cAMP concentration was examined in CHO-K1 cells transiently transfected with LGR7 (RXFP1) or LGR8 (RXFP2). The experiment measured cAMP concentration in response to the addition of the peptides.
LGR7 (RXFP1) or LGR8 (RXFP2) were transiently transfected into CHO-K1 cells as follows: Cells (12 million) were plated into T75 flasks on the day preceding transfection. Cells were transfected with a GPCR DNA and Gα16 using a lipid technique according to the manufacturer's recommendation. Cells were transfected for 5 hours, then re-plated into 96-well dishes (60,000 cells per well) and grown overnight. Transfected cells were plated into 24 wells of a 96-well plate. Cells were pre-treated with 0.5 mM IBMX (stimulation buffer) for 10 min at 37° C., then stimulated with either a positive control (Relaxin 2) or a candidate peptide (for Gs functional examination), followed by stimulation or a preincubation with 10 μM forskolin (for Gi functional examination). Following a 20 minutes stimulation by incubation with 1 μM of either positive control or the tested peptides, either with or without forskolin, intracellular cAMP was assayed using the Hit Hunter cAMP kit (DiscoveRx Corporation) according to the manufacturer's recommended protocol. Data was converted to nmol of cAMP by running a standard cAMP curve.
Relaxin was used as a positive control. cAMP level was elevated by pre-treatment with forskolin.
The transfected CHO-K1 cells were treated with 10 uM of Forskolin (Applied cell sciences (ACS)) for 10 minutes and then challenged with 1 uM of H2 Relaxin (ACS) (as a positive control), 1 uM of Peptide P59C13V (P59) (SEQ ID NO: 6), and Peptide P74C13V (P74) (SEQ ID NO: 10).
A dose response effect of P59C13V (P59) and P74C13V (P74) on CHO-K1 cells transiently transfected with LGR8 (RXFP2) was further examined (Method as above). CHO-K1 cells transiently transfected with LGR8 (RXFP2) were treated with 20 uM of Forskolin for 10 minutes and then challenged with either INSL3 (as a positive control), P59C13V (SEQ ID NO: 6) or P74C13V (P74) (SEQ ID NO: 10) at increasing concentrations from 1 nM to 10 uM.

T2 sequence (Q8WXD0 whole entry): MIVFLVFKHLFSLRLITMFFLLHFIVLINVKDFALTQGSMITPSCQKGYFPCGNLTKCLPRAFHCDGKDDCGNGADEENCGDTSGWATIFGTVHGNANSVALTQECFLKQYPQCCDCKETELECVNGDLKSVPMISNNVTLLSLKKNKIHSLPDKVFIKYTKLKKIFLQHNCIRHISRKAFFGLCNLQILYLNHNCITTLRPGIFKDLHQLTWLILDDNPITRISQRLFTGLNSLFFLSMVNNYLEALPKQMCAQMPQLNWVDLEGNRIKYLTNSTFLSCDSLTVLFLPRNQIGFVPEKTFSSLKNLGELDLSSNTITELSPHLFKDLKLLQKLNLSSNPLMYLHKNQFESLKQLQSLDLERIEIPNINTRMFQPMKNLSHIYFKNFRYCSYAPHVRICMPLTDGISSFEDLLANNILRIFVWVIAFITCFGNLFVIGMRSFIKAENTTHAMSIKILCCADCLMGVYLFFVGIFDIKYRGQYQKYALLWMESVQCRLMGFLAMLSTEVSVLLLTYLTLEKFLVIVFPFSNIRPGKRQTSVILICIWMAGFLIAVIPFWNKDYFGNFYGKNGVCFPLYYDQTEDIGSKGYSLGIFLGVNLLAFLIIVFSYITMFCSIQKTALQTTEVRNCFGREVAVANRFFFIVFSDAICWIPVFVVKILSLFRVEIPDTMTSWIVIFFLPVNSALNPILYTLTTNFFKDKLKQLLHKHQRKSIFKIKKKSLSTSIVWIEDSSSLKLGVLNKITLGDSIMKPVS

Substance: H3 Relaxin: Relaxin 3 (Euroscreen), ligand of RXFP3, positive control [reference compound]
- cAMP activation (Gs) of RXFP3 (GPR135 (RXFP3)): strong cAMP stimulation

Substance: INSL3: Leydig insulin-like 3 peptide, high affinity ligand of LGR8, positive control (chain 1 AAATNPARYCCLSGCTQQDLLTLCPY; chain 2 PTPEMREKLCGHHFVRALVRVCGGPRWSTEA) [reference compound]
- CRE activation pattern relative to Forskolin (LGR8 (RXFP2) [1]): increased activation at higher concentrations
- change in cAMP, dose response, higher concentrations (LGR8 (RXFP2) [2]; concentrations higher than 100 nM (up to 10 uM)): sharp decrease (Gi effect)
- change in cAMP, dose response, lower concentrations (LGR8 (RXFP2) [2]; concentrations lower than 100 nM): slight dose dependent increase
